Assay results reported in patent US20040265797A1 (CHIRON, published 2004).
Square brackets hold non-standard residues; d marks the D form. Ends that are not written are not given here.

What was measured:
[1] = biological target: T1, Soluble recombinant human urokinase receptor (suPAR) (human, UniProt Q03405 23-299, limits assumed, biotinylated in the plate assays (sites not given)); test: competition with phage displaying peptide 9 for soluble uPAR
T1 construct: Only called a soluble truncated form of the urokinase receptor; also called soluble uPAR; biotinylated suPAR
Experimental: (§1) The final anti-M13 conjugate dilution was 1:4000.
(§2) These concentrations were calculated based on the synthesis reactions.

[2] = biological target: T1, Soluble recombinant human urokinase …; test: competition with phage displaying peptide 9 for soluble uPAR; * quantity tested could have been lower
Experimental: as §1, §2

[3] = biological target: T1, Soluble recombinant human urokinase …; test: alanine scan of peptide 9; competition with phage displaying peptide 9 for soluble uPAR
Experimental: Streptavidin, 100 μl (0.1 mg/ml) in 50 mM Na₂CO₃, pH 9.6, was added to MaxiSorp wells (Nunc), incubated overnight at 4 C, and then washed with PBS/BSA. […] Competitive peptide inhibitors were added to the wells immediately prior to addition of the bacteriophage. The wells were incubated for one hour at room temperature, then washed and bound bacteriophage eluted with 6M urea in 0.1N HCl, pH 2.5. After 15 minutes, the urea eluate was brought to neutral pH by addition of 2M Tris base and the bacteriophage titers of input stocks and elutions measured by plaque formation assay. Results were expressed as the percent of input bacteriophage which bind to the wells. Alternatively, the amount of bacteriophage was determined in an ELISA where phage were preincubated with HRP-conjugated anti-M13 antibody for 30 minutes at room temperature before dispensing into wells prepared as above and incubated for one hour at room temperature. The final anti-M13 conjugate dilution was 1:4000. After washing, TMB substrate (100 μl/well) was added and color development was stopped with 0.8N H₂SO₄ (100 μl/well). The absorbance at 450 nm was then measured in a 96 well plate reader.
Approximately 10⁸ plaque forming units of the phage were used in the assay.

T1 sequence (Q03405 23-299 limits assumed): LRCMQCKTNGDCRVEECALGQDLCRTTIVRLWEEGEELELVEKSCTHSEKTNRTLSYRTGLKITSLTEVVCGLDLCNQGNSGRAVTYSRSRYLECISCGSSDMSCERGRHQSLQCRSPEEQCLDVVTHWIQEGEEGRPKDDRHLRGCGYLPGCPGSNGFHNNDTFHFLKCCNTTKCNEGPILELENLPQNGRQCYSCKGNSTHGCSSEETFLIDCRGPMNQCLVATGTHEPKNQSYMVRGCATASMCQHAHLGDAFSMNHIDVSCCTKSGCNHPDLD

| Binder | % Inhibition at 2.5 uM [1] | % Inhibition at 5 uM [1] | % Inhibition at 2.5 uM [2] | binding result [3] |
| --- | --- | --- | --- | --- |
| AEFFKLGPNGYVYLH[dS]A-NH2 (N-terminus assumed; SMILES CC(C)C[C@H](NC(=O)[C@H](CCCCN)NC(=O)[C@H](Cc1ccccc1)NC(=O)[C@H](Cc1ccccc1)NC(=O)[C@H](CCC(=O)O)NC(=O)[C@H](C)N)C(=O)NCC(=O)N1CCC[C@H]1C(=O)N[C@@H](CC(N)=O)C(=O)NCC(=O)N[C@@H](Cc1ccc(O)cc1)C(=O)N[C@H](C(=O)N[C@@H](Cc1ccc(O)cc1)C(=O)N[C@@H](CC(C)C)C(=O)N[C@@H](Cc1c[nH]cn1)C(=O)N[C@H](CO)C(=O)N[C@@H](C)C(N)=O)C(C)C) [Analog 95] | 47% | 59% | – | – |
| AEFFKLGPNGYVYLHS[dA]-NH2 (N-terminus assumed; SMILES CC(C)C[C@H](NC(=O)[C@H](CCCCN)NC(=O)[C@H](Cc1ccccc1)NC(=O)[C@H](Cc1ccccc1)NC(=O)[C@H](CCC(=O)O)NC(=O)[C@H](C)N)C(=O)NCC(=O)N1CCC[C@H]1C(=O)N[C@@H](CC(N)=O)C(=O)NCC(=O)N[C@@H](Cc1ccc(O)cc1)C(=O)N[C@H](C(=O)N[C@@H](Cc1ccc(O)cc1)C(=O)N[C@@H](CC(C)C)C(=O)N[C@@H](Cc1c[nH]cn1)C(=O)N[C@@H](CO)C(=O)N[C@H](C)C(N)=O)C(C)C) [Analog 96] | – | 40% | 38% | – |
| AEFFKLG[dP]NGYVYLHSA-NH2 (N-terminus assumed; SMILES CC(C)C[C@H](NC(=O)[C@H](CCCCN)NC(=O)[C@H](Cc1ccccc1)NC(=O)[C@H](Cc1ccccc1)NC(=O)[C@H](CCC(=O)O)NC(=O)[C@H](C)N)C(=O)NCC(=O)N1CCC[C@@H]1C(=O)N[C@@H](CC(N)=O)C(=O)NCC(=O)N[C@@H](Cc1ccc(O)cc1)C(=O)N[C@H](C(=O)N[C@@H](Cc1ccc(O)cc1)C(=O)N[C@@H](CC(C)C)C(=O)N[C@@H](Cc1c[nH]cn1)C(=O)N[C@@H](CO)C(=O)N[C@@H](C)C(N)=O)C(C)C) [Analog 88] | – | 76% | 80% | – |
| AEFFKLGPNGYVYL[dH]SA-NH2 (N-terminus assumed; SMILES CC(C)C[C@H](NC(=O)[C@H](CCCCN)NC(=O)[C@H](Cc1ccccc1)NC(=O)[C@H](Cc1ccccc1)NC(=O)[C@H](CCC(=O)O)NC(=O)[C@H](C)N)C(=O)NCC(=O)N1CCC[C@H]1C(=O)N[C@@H](CC(N)=O)C(=O)NCC(=O)N[C@@H](Cc1ccc(O)cc1)C(=O)N[C@H](C(=O)N[C@@H](Cc1ccc(O)cc1)C(=O)N[C@@H](CC(C)C)C(=O)N[C@H](Cc1c[nH]cn1)C(=O)N[C@@H](CO)C(=O)N[C@@H](C)C(N)=O)C(C)C) [Analog 94] | 36% | 41% | – | – |
| AEFFKAGPNGYVYLHSA-NH2 [Analog 69 (peptide 9, Leu at position 6 to alanine)] | – | – | – | no binding |
| AEFFKLGPNGAVYLHSA-NH2 [Analog 74 (peptide 9, Tyr at position 11 to alanine)] | – | – | – | no binding |
| AEFFKLGPNGYVALHSA-NH2 [Analog 76 (peptide 9, Tyr at position 13 to alanine)] | – | – | – | no binding |
| AEFFKLGPNGYAYLHSA-NH2 [Analog 75 (peptide 9, Val at position 12 to alanine)] | – | – | – | no binding |
| [dA]EFFKLGPNGYVYLHSA-NH2 (N-terminus assumed; SMILES CC(C)C[C@H](NC(=O)[C@H](CCCCN)NC(=O)[C@H](Cc1ccccc1)NC(=O)[C@H](Cc1ccccc1)NC(=O)[C@H](CCC(=O)O)NC(=O)[C@@H](C)N)C(=O)NCC(=O)N1CCC[C@H]1C(=O)N[C@@H](CC(N)=O)C(=O)NCC(=O)N[C@@H](Cc1ccc(O)cc1)C(=O)N[C@H](C(=O)N[C@@H](Cc1ccc(O)cc1)C(=O)N[C@@H](CC(C)C)C(=O)N[C@@H](Cc1c[nH]cn1)C(=O)N[C@@H](CO)C(=O)N[C@@H](C)C(N)=O)C(C)C) [Analog 82] | – | 41% | 24% | – |
